Here are results for three molecules from publication PMC2854372 (The Journal of Cell Biology, 2010).

In one test the target is T1, Bbp1-TAP (budding yeast, UniProt Q12365 1-385).
T1 sequence (looked up): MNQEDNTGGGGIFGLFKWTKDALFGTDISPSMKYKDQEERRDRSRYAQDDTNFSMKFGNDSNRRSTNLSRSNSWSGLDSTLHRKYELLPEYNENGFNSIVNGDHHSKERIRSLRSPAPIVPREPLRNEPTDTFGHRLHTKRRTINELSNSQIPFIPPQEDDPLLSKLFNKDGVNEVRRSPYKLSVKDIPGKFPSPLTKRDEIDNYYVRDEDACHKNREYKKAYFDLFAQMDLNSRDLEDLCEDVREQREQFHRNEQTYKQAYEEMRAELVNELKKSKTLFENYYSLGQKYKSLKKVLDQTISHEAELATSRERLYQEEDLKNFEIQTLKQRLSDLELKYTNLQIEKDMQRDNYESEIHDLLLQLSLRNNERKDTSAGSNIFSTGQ
Nature of the test: pull-down.

Another test concerns the target T2, Kar1 peptide (budding yeast).
T2 peptide: KKRELIESKWHRLLFHDKK

B1: GST-Spc29 phosphorylated by 6His-Mps1 (natural protein, budding yeast, UniProt P33419 1-253, looked up)
chain: MDYSNFGNSASKKFQDDTLNRVRKEHEEALKKLREENFSSNTSELGNKKHYRAQERMSSPLHRLSPTGKSDDRKVKSPLDDKLRRQLREGNTRLPPPPFSSYGMPPTNRSNLDRIRRRTSSPVRTDKFASQNVIDDQRLEIKYLERIVYDQGTVIDNLTSRITRLESFILNSISDRGDKNFASLEHSRSFSGFPTNKTYGLQMGGLYENDMPYRRSSDNINKEGAREDRSSQIHIENESTEDILKILSSSFHN
modifications: phosphorylated in vitro by Mps1; sites identified by LC-MS/MS: T18, T159, S187 and T240
For the molecule B1, the “fold binding against GST-Spc29 treated with kinase-dead mps1KD” value with Bbp1-TAP turned out to be 5 fold.

B2: GST-Spc29, nonphosphorylated (natural protein, budding yeast, UniProt P33419 1-253, looked up)
chain: B1 chain
Take B2: the binding result in the test with Bbp1-TAP was “binds”.

B3: Cdc31-T110D (natural protein, budding yeast, UniProt P06704 1-161, looked up)
chain: MSKNRSSLQSGPLNSELLEEQKQEIYEAFSLFDMNNDGFLDYHELKVAMKALGFELPKREILDLIDEYDSEGRHLMKYDDFYIVMGEKILKRDPLDEIKRAFQLFDDDHDGKISIKNLRRVAKELGETLTDEELRAMIEEFDLDGDGEINENEFIAICTDS
For the molecule B3, in the test with Kar1 peptide, the “fold lower ability to bind than wild-type Cdc31” value is around 10 fold.
